Test: yeast display, Sf9 membrane polyspecificity reagent, FACS + sequencing; frameworks hold sequencing errors
Summary of the method: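 A synthetic nanobody library was expressed on Saccharomyces cerevisiae BJ5465 by galactose induction for 36–48 hours. The library was stained for 1 hour at 4 °C with 10% biotinylated, detergent-solubilized Sf9 membrane reagent and enriched with streptavidin microbeads before FACS. Low and high (top ~1%) gates were set on anti-HA fluorescence for expression and streptavidin fluorescence for reagent binding, and each polyreactivity label reflects the gate of origin.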

| Sequence | polyreactivity (PSR sort gate) |
| --- | --- |
| QVQLVESGGGLVQAGGSLRISCAASGFICPQNTMGWYRQAPGTERELVAAITSCGSTYYADSVKGRFTISRDNGKNTVYLQMNSLKPEDTAVYYCAARPYGNWTYGYWGQGTQVTVSS | low polyreactivity |
| QVQLVDSGGGLVQAGGSLRLSCAASGHTLAVNAMGWYRPAPGKERELVAAITSSGGSTSYADSEKGRFTISRDNAKNTVYLQMNSLKPEDTAVYYCAAEQRYPLIILYDYWGQGTQVTVSS | low polyreactivity |
| QVQLVESGGGLVQAGGSLRLSCAASGGTFFSYAMGWYRQAPGKERELVAAISRGGDTTYADSVKGRFTISRDNAKNTVYLQMNSLKPEDTAVYYCAARVPPLLTDSPVFPYDYWGQGTQVTVSS | low polyreactivity |
| QVQLVESGGGLVQARGSLRLSCAASGNTFVRNVMGWYRKAPGKERELFAAITWRSVRTDYADSVKGRFTISLDNAKNTVNLQMNSLKPEDTAVYNCAAPSASRHGEYDYWGQGTQVTVSS | low polyreactivity |
| QVQLVESGGGLVQAGGSLRLSCAASGSIFGYYAMGWYRQAPGKERELVAVITRSGGSTYYADSVKGRFTISRDNAKNTVYLQMNSLKPEDTAVYYSNAKSDYGYKMYYWGQGTQVTVSS | high polyreactivity |
| QVQLVESGGGLVQAGGSLRLSCAASGLTFPWYAMGWYRQAPGKERELVASINSSTGSTYYADSVKGRFTISRDNAKNTVYLQMNSLKPEYTAVYYCAAVEYGNMDWGQGTQVTVSS | low polyreactivity |
| QVQLVESGGRLVQAGGSLRLSCAASGSIISWYAMGWYRQAPGKERELVAAISNSGGSTYYADSVKGRFTISRDNAKNTVYLQMNSLKPEDTAVYYCAAYDGDTYDWGQGTQVTVSS | high polyreactivity |
| QVQLVESGGGLVQAGGSLRLSCAASGSTSYDNAMGWYRQAPGKERELVASISSDGSTNYADSVKGRFTISRDNAKNTVYLQMNSLKPEDTAVYYCNVEVTRGLSHDPEYDYWGQGTQVTVSS | low polyreactivity |
| QVQLVESGGGLVQAGRSLRLSCAASGSTYGYYAMGWSRQAPGKERELVAAISSTGGRTYYADSVKGRFTISRDNAKNTVYVQMNSLKPEDTAVYYCAARQLSSHYDYWGQGPQVTVSS | low polyreactivity |
| QVQLVESGGGLVQARGSLRLSCAASVRTICNNAMGWYREAPGKERELVAANTSTASRTYYADSEKGRFTISRDNAKNTVYLQMNSLKPEDTAVYYCNRVSHLDYYWGQGTQVTVSS | high polyreactivity |
| QVQLVESGGGLVQAGGSLRLSCAASGGIFSSYAMGWYRQAPGKERELVASISRRGTSTYYADSVKGRFTISRDNAKNTVYLQMNSLKPEDTAVYYCAAGTKYTSAVHFYYWGQGTQVTVSS | high polyreactivity |
| QVQLVESGGGLVQAGGSLRLSCAASGRTFSKNVMGWYRQAPGKEREFVARISDSGVGTYYADSVKGRFTISRDNAKNTVYLQMNSLKPEDTAVYYCDKQYGGRYGYWGQGTQVTVSS | low polyreactivity |
| QVQLVESGGGLVQAGGSLRLSCDASGFTFIRNGMGWYRQAPGKERELVAAINSRGGNTYYADSVKGRFTISRDNAKNTVYLQMNSLKPEDTAVYYCNRVVQRWSTQYGYWGQGTQVTVSS | high polyreactivity |
| QVQLVESGGGLVQAGCSLRLSCAASGLTSTANAMGWYRQAPGKERELVAGITTGGSTYYADSVKGRFTISRDNAKNTVYLQMISLKPEDTAVYYCNAPTYADTTYDYWGQGTQVTVSS | low polyreactivity |
| QVQLVESVGGLVQAGGSLRLSCAASGSTFAFNAMGWYRQAPGKEREFVAAITWRGGSTYYADSVKGRFTISRDNAKNTVYLQMNSLKPEDTAVYYCARRPGYALTWRVSGRYDYWGQGTQVTVSS | high polyreactivity |
| QVQLVESGGGLVQAGGSLRLSCAASGSILRYYAKGWYRQAPGKERELVASINWSGGSTYYADSVKGRFTISRDNAKNTVYLQMNSLKPEDTAVYYCAARRRSAEYNYWGQGTQVTVSS | high polyreactivity |
| QVQLVESGGGLVQAGGSHRLSCAASGRTFGHNAMGWYRQAPGKEMEFVASIRSGGITDYADSVKGRFTISRDNAKNTVYLQMNSLKPEDTAVYYCAADVLDWYDLLRDDYWGQGTQVTVSS | low polyreactivity |
| QVQLVESGGGLVQAGGSLRLSCAASGSIFYRYVMGWYRQAPGKERELVAAITSTGSTYYADSVKGRFTISRDNAKNTVYLQMNSLKPEDTAVYYCNTLYARPLRDSYGYWGQGTQVTVSS | high polyreactivity |
| QVQLVESGGGLVQAGGSLSLSCAASGSIFPYYAMGWYRQAPGKESELVAAISRGGGTTYYADSVKGRFTISRDNAKNSVYLQMNSLKPEDTAVYSGAARRWGEYDYWGQGTQVTVSS | high polyreactivity |
| QDQLVDSGGGLVQAGGSLRLSCAASGSIYDPYAMGWYRQAPGKERELVATIDWDDASTYYADSVKGRFTISRDNAKNTVYLQMNSLKPEDTAVYYCATRDRAGYYYWGQGTQVTVSS | high polyreactivity |
| QVQLVESGAGLVQAGGSLRLSCAASGSIFWAYAMGWYRQAPGKERELVAAISRGGTTTYADSVKGRFTISRDNAKYTVYLQMNSLKPEDTAVYYCARQGTIYSYDIVYPRLDYWGQGTQVTVSS | low polyreactivity |
| QVQLVESGGGLVQAGGSLRLSCAASGSILCTNAMGWYRQAPGKERELVAAITTSGASTYYADSVKGRFTISRANAKNSVYLPMNSLKPEDSAVYYCAAPSRYRYYWGNYWGQGTQVTVSS | high polyreactivity |

| Sequence | polyreactivity (PSR sort gate) |
| --- | --- |
| QVQLVESGVGLVQAGGSLRLSCAASGSTFGTYDMGWFRQAPGKERELVAAITWIGDTTYYADSVKGRFTISRDNAKNTVYLQMNSLIPEDTAVYYCAAEPNYQYYGPLGYDYWGQGTQVTVSS | low polyreactivity |
| QVQLVESGGGLVQAGGSLRLSCAASGRILTTNAMGRYRQAPGKERELVATISTGSGRTYYADSVKGRFTISRDNAKNTVYLQMNSLKPEDTAVYYCAASRTLRKHRYEYWGQGTQVTVSS | high polyreactivity |
| QVQLVESGAGLVQAGGSLSLSCAASGRTIVTNAMGWYRQAPGKERELVAAINGRGDNTYYADSVKGRFTISRDNAKNTFYLQMNSLKPEDTAVYYCAVRRGYHSHTKYYYWGLGTQVTVSS | high polyreactivity |
| QVHLVETGGGLLQAGGSLRLSFAASGFTFWRYAMGWSRQAPGKESELVAAISRTGGRTYYADSLKGRFTISRDHAKNTVYLQMNSLNPEDTAVYYCNAPRGYSSTRNGYWGQGTQVTVSS | high polyreactivity |
| QVQLVESGGGLVQAGGSLRLSCAASGLIFLYAMGWYRQAPGKERELVAAISNGGSTYYADSVKGRFTISRDNAKNTVYLQMNSLKPEDTAVYYCAAKGVRRRYRQDMYYWGQGTQVTVSS | high polyreactivity |
| QVQLVESGGGLVQAAGSLRLSCAASGSIAMGWYRQAPGKERELVATISSSGGSTYYADSVKGRFTISRDNAKNTVYLQMNSLKPEDTAVYYCAAGGYTLYHAWGYYWGQGTQVTVSS | low polyreactivity |
| QVQLVESGGGLVQAGGSLRLSCAASGSNFGANAMGWYRQAPGKEREFVAAISGSGTTTYYADSVKGRFTISRDNAKNTVYLQMNSLKPEDTAVYYCAKTRKAHWLGYWGQGTQVTVSS | low polyreactivity |
| QVQLVESGGGLVQAGGSLRLSCAASGRIFYGYAMGWYRQAPGKERELVASISRRGSSTYYADSVKGRFTISRDNAKNTVYLQMNSLKPEDTAVYYCAAGYYPFNYWGQGTQLTVSS | high polyreactivity |
| QVQLQESGGGLVQAGGSLRLSCAASGTISPLPAMGWYRQAPGKERDFVAGIDTGAITNYADSVKGRFTISRDNAKHTVYLQMNSLKPEETAVYYCADFPAAYDYYERYYTYWGQGTQVTVSS | low polyreactivity |
| QVQLVESGGGLVQAGGSLRLSCAASGSTFYHYTMGWYRQAPGKERELVAAITYSGGRTYYADSVKGRFTISRDNAKNTVYLQKNSLKPEDTAVYYCAATYSTPGAGYYHYWGQGTQVTVSS | high polyreactivity |
| QGQLVESGGGLVQAGGSLRLSCAPTGRTFAHYARGWYRQAHWTERELVAGITRRAGSTYYADSVKGRFTISRDNAKHSVYLHMNSLKPEETEVYYCAAPRDWDAGDYWGQGTQVTVSS | high polyreactivity |
| QVQLVESGGGLVQAGGSLRLSCAASGNIFWWNAMGWYRQAPGKERELVAAITSDSTTYYADSVKGRFTISRDNAKNTVYFQMNCLKPEDTAVYYCAAYSYGGQGVDYGYWGQGTQVSVSS | low polyreactivity |
| QVQLVESGGGLVQAGGSLRLSFAASGIIFDLYAMGWYRQAPGKERELVAAITRSVGSTYYADSVKGRFTISRDNAKNTVYLQMNSLKPEDTAVYFCAAVRFAYGYTYDYWGQGTQVTVSS | high polyreactivity |
| QVQLVESGGGLVQAGGSLRLSCAASGRTFGRYAMGWSRQAPGKERELVAAIRYTGGSTYADSVKGRFTISRDNAKNTVYLQMNSLKPEDTAVYYCAVLFYNNFGYWGQGTQVTVSS | low polyreactivity |
| QVQLVESGGGLVQAGGSLRLSCAASGSTFGVNDMGWYRQAPWKERELVAAISRGAITNYADSVKGRFTISRDNAKNTVYLQMNSLKPEDTAVYYCAAGFVTYYVPQYKEYGYDYWGQGTQVTVSS | low polyreactivity |
| QVQLVESGGGLVPAGGSLRLSCAASGSTFYIYAMGWYRQAPGKERELVAAISRRGSSTYYADSVKGRFTISRDNAKNTVYLQMNSLIPEDTAVYYCAASQRHDHYYWGQGTQVTVSS | high polyreactivity |
| QVQLVESGGGLVQAGGSLRLSCAASGSTFFPNGMGWYRQAPGKERELVAAITQDGGSTYYADSVKGRFTISRDNAKNTVYLQMNSLKPEDTAVYYCNADYFVWYIGRVFSRYGYWGQGTQVTVSS | low polyreactivity |
| QVQLVESGGGLVQAGGSLRISCAASGITLAKNAMGWYRQAPGKETELVAAISRRGGNTYYADSVKGRFTISRDNAKNTVYLQMNSLKPEDTAVYYCAVDYRSTGLGYWGQGTQVTVSS | high polyreactivity |
| QVQLVESRGGLVQAGGTLRLSCAASGSTFAVNAMGWYRQAPGKERELVATITGSGGSTYYADSVKGRFTISRDNAKNTVYLQLNSLKPEDTAVYYCATDLVFDKRYWYDYWGQGTQVTVSS | low polyreactivity |
| QVQLVDSGGGLVQEGGSLRLSCAASGNIFQTYDMGWYRQAHGKEREFVATITSSCARTYYADSVKGRFTISRDNAKNTVYVQMNCLKPEDTAVDYCNRVWSYANGYWGHGTQVTVSS | high polyreactivity |
| QVQLVESGGGLVQAGGSLRLSCAASGFTFRRYAMGWYRQAPGKERVLVAAISRGGSSTYYADSVKGRFTISRDNAKNTVYLQMNSLKPEDTAVYYCNARTYVALGFNYWGQGTQVTVSS | high polyreactivity |

— the nanobody polyreactivity screen of Harvey et al. (2022)
